Laboratory results from the RNAGym collection of RNA variant scans (doi:10.7554/elife.80360).

B1: CPEB3 Ribozyme (parent)
chain: GGGGGCCACAGCAGAAGCGUUCACGUCGCGGCCCCUGUCAGAUUCUGGUGAAUCUGCGAAUUCUGCUGU

Variants of: B1
Experiment: self-cleavage, relative activity (ratio to wild type); higher = more cleavage; co-transcriptional

Going from G25U G50A to G25U G50U, the self-cleavage rises from 0.144 to 0.151.

G25U G50C and G25U U49G are the same in self-cleavage: 0.189 for the first, 0.189 for the second.

First: G25U U49C
Second: U26A A60U
The self-cleavage of the first is lower: 0.157 for the first, 0.377 for the second.

Going from U26A A60G to G25U C33U, the self-cleavage falls from 0.478 to 0.137.

Going from G25U C33G to G25U C33A, the self-cleavage rises from 0.128 to 0.175.

Going from U26A A42G to U26A A42C, the self-cleavage rises from 0.72 to 0.797.

Compared with U26A C57U, U26A C57G is lower in self-cleavage: 0.39 for the first, 0.216 for the second.

Going from G25U A59U to G25U G68U, the self-cleavage falls from 0.199 to 0.159.

First: G25U G68C
Second: U26C A42U
The self-cleavage of the first is lower: 0.225 for the first, 0.964 for the second.

First: U26C A42C
Second: G25U G58A
The self-cleavage of the first is higher: 1.01 for the first, 0.214 for the second.

Going from G25U G58C to G25U C29G, the self-cleavage rises from 0.107 to 0.161.

Compared with G25U C29A, G25U U53G is higher in self-cleavage: 0.198 for the first, 0.226 for the second.

Compared with G25U U53C, G25U U53A is higher in self-cleavage: 0.112 for the first, 0.166 for the second.

Compared with U26A U61G, U26A U61C is lower in self-cleavage: 0.559 for the first, 0.403 for the second.

Compared with U26A G68A, G25U U36A is lower in self-cleavage: 0.941 for the first, 0.125 for the second.

Going from G25U U36C to G25U C34G, the self-cleavage rises from 0.103 to 0.196.

First: G25U C34U
Second: G25U U44C
The self-cleavage of the first is higher: 0.151 for the first, 0.105 for the second.

Compared with G25U U44G, G25U U44A is lower in self-cleavage: 0.146 for the first, 0.136 for the second.

First: U26A U43G
Second: U26A U43C
The self-cleavage of the first is lower: 0.707 for the first, 0.802 for the second.

First: U26A G65A
Second: U26A C63A
The self-cleavage of the first is higher: 0.736 for the first, 0.51 for the second.

Compared with U26A U64G, U26A U64A is lower in self-cleavage: 0.719 for the first, 0.628 for the second.

Compared with U26A U46G, U26A U46A is higher in self-cleavage: 0.895 for the first, 0.906 for the second.

Going from U26A U44A to U26A U44G, the self-cleavage rises from 0.843 to 0.85.

Going from G25U C27G to U26A C32U, the self-cleavage rises from 0.16 to 0.869.

Going from U26A C32A to U26A C32G, the self-cleavage falls from 0.422 to 0.231.

First: G25U U55G
Second: G25U U55A
The self-cleavage of the first is lower: 0.146 for the first, 0.154 for the second.

Going from U26A G56U to U26A G56C, the self-cleavage falls from 0.752 to 0.357.

First: G25U C32G
Second: U26A U67G
The self-cleavage of the first is lower: 0.158 for the first, 0.858 for the second.

First: U26A U67C
Second: U26A A52C
The self-cleavage of the first is lower: 0.868 for the first, 0.9 for the second.

Compared with U26A A52U, U26A A52G is higher in self-cleavage: 0.816 for the first, 0.825 for the second.

Going from U26A G48A to U26A G48C, the self-cleavage rises from 0.846 to 0.882.

Going from G25U G31U to G25U G31A, the self-cleavage falls from 0.182 to 0.163.

First: G25U G31C
Second: U26A U62A
The self-cleavage of the first is lower: 0.191 for the first, 0.671 for the second.

Compared with U26A A51U, U26A U69C is higher in self-cleavage: 0.813 for the first, 1.04 for the second.

Going from U26A U69G to G25U C54U, the self-cleavage falls from 0.977 to 0.121.

Compared with G25U C54G, G25U C54A is higher in self-cleavage: 0.115 for the first, 0.125 for the second.

First: U26A G30A
Second: G25U U69G
The self-cleavage of the first is higher: 0.36 for the first, 0.183 for the second.

First: G25U U69C
Second: G25U C35A
The self-cleavage of the first is higher: 0.263 for the first, 0.155 for the second.

Going from G25U C35G to G25U G37C, the self-cleavage falls from 0.165 to 0.0933.

First: U26A C33G
Second: G25U C63U
The self-cleavage of the first is higher: 0.395 for the first, 0.173 for the second.

Going from G25U C63A to G25U G41A, the self-cleavage falls from 0.129 to 0.112.

First: U26C C29A
Second: U26C C29G
The self-cleavage of the first is higher: 0.414 for the first, 0.345 for the second.

Compared with U26A G50C, U26A G50A is lower in self-cleavage: 0.95 for the first, 0.871 for the second.

Compared with U26A G37U, U26A G37C is lower in self-cleavage: 0.222 for the first, 0.209 for the second.

First: U26A G37A
Second: U26C A40C
The self-cleavage of the first is lower: 0.287 for the first, 0.455 for the second.

Compared with U26C A40G, U26C A40U is lower in self-cleavage: 0.949 for the first, 0.733 for the second.

Going from U26C to U26A, the self-cleavage falls from 0.993 to 0.907.

First: U26A U36C
Second: U26A U36A
The self-cleavage of the first is higher: 0.403 for the first, 0.15 for the second.

Compared with U26A U36G, U26A A40C is higher in self-cleavage: 0.145 for the first, 0.32 for the second.

First: U26A A40G
Second: U26A G41C
The self-cleavage of the first is higher: 0.7 for the first, 0.54 for the second.

First: G25U U46C
Second: G25U U46G
The self-cleavage of the first is lower: 0.179 for the first, 0.205 for the second.

Compared with G25U U46A, G25U C57U is higher in self-cleavage: 0.105 for the first, 0.15 for the second.

Compared with G25U C57G, G25U C57A is lower in self-cleavage: 0.151 for the first, 0.137 for the second.

First: G25U G48A
Second: G25U G48C
The self-cleavage of the first is lower: 0.176 for the first, 0.215 for the second.

Going from G25U G48U to G25U G30A, the self-cleavage rises from 0.155 to 0.16.

Compared with G25U G30C, U26A G31A is higher in self-cleavage: 0.14 for the first, 0.511 for the second.

Compared with U26A U55G, U26A U55C is higher in self-cleavage: 0.44 for the first, 0.712 for the second.

Going from U26A U38G to U26A U38C, the self-cleavage rises from 0.244 to 0.419.

Compared with U26A U38A, G25U U38G is lower in self-cleavage: 0.423 for the first, 0.205 for the second.

First: G25U C39G
Second: G25U C39U
The self-cleavage of the first is lower: 0.124 for the first, 0.151 for the second.

First: U26A C35U
Second: U26A C35A
The self-cleavage of the first is higher: 0.644 for the first, 0.228 for the second.

Compared with U26A C27U, U26A C27G is lower in self-cleavage: 0.429 for the first, 0.121 for the second.

Compared with G25U G28C, G25U G28A is lower in self-cleavage: 0.159 for the first, 0.141 for the second.

First: U26C A60C
Second: U26C A60U
The self-cleavage of the first is lower: 0.233 for the first, 0.337 for the second.

First: G25U U26C
Second: G25U U26A
The self-cleavage of the first is higher: 0.631 for the first, 0.273 for the second.

Going from U26A A59U to U26A A59G, the self-cleavage rises from 0.404 to 0.923.

Compared with G25U U61G, G25U G47C is lower in self-cleavage: 0.149 for the first, 0.11 for the second.

Going from U26A C29G to U26A C34G, the self-cleavage rises from 0.307 to 0.501.

Going from U26A C34U to U26A U53A, the self-cleavage falls from 0.93 to 0.806.

Going from U26A U53C to U26A U53G, the self-cleavage falls from 0.724 to 0.647.

First: U26C A51G
Second: U26C A51U
The self-cleavage of the first is lower: 0.928 for the first, 0.982 for the second.

Going from U26C A51C to G25U U64A, the self-cleavage falls from 0.972 to 0.132.

Going from G25U U64C to U26A G47A, the self-cleavage rises from 0.103 to 0.88.

Going from U26A G47U to U26A C66A, the self-cleavage falls from 0.932 to 0.637.

Going from U26A C66U to U26A C66G, the self-cleavage falls from 0.946 to 0.635.

Compared with U26A C54U, G25U C45A is lower in self-cleavage: 0.909 for the first, 0.181 for the second.

First: G25U C45U
Second: G25U C66U
The self-cleavage of the first is higher: 0.156 for the first, 0.121 for the second.

Compared with U26A G28A, U26A G28C is lower in self-cleavage: 0.216 for the first, 0.114 for the second.

Going from U26C A52C to U26C A52G, the self-cleavage rises from 0.995 to 1.01.

First: U26C A52U
Second: G25U U62C
The self-cleavage of the first is higher: 0.989 for the first, 0.193 for the second.

Compared with G25U U67A, G25U U67C is higher in self-cleavage: 0.145 for the first, 0.212 for the second.

First: G25U U67G
Second: U26C A59U
The self-cleavage of the first is lower: 0.237 for the first, 0.677 for the second.

Compared with U26C A59C, U26C A59G is higher in self-cleavage: 0.59 for the first, 1.05 for the second.

With G25U G65C the self-cleavage was 0.105.
